Reference: US20090191186A1 (KALOBIOS PHARMACEUTICALS, published 2009)
Numbering of substitutions follows the chain as printed.

B1: Fab SEQ ID NOs. 35. 36 (Fab, V domains shown)
VH: EVQLVESGGGVVQPGRSLRLSCAASGFTFSNYPMHWVRQAPGKGLEWVAVISYDGSEKWYADSVKGRFTISRDNSKNTLYLEMNSLRPEDTAVYYCARNRGDIYYDFTYAMDYWGQGTTVTVSS
VL: DIQLTQSPSTLSASVGDSVTITCRASEGVDRWLAWYQQKPGRAPKLLIYDASTLQSGVPSRFSGSGSGTEFSLTISSLQPDDVATYYCQHFWSTPYTFGQGTKLEIK
B2: Fab SEQ ID NOs: 5, 6 (Fab, V domains shown)
VH: QVQLVESGGGVVQPGRSLRLSCTASGFSFSSYGMHWVRQAPGKGLEWVAVIWYNGKEISYADSVKGRFTVSRDNPKNTLYLQMSSLRTEDTAVYYCARNRGDIYYDFTYAMDIWGQGTMVTVSS
VL: AIQLTQSPSFLSASVGDRVTITCRASQGISTYLAWYQQKPGKAPKLLIYAASSLQSGVPSRFSGSGSGTDFTLTISSLQPEDVATYYCQQFWSTPYTFGQGTKLEIK
B3: Fab SEQ ID NOs: 13, 4 (Fab, V domains shown)
VH: QVQLVESGGGVVQPGRSLRLSCAASGFTFSSYPLHWVRQAPGKGLEWVSFISYDGSEKYYASSVKGRFTISRDNSENTLYLQMNSLRPEDTAVYYCARNRGDIYYDFTYAMDIWGQGTMVTVSS
VL: DIQMTQSPSSLSASVGDRVTITCRASQSISRWVAWYQQRPGKAPNLLIYDASSLKSGVPSRFSGSGSGTEFTLTISSLQPEDIATYYCQQFWSTPYTFGQGTKLEIK
B4: Fab SEQ ID NOs: 13, 10 (Fab, V domains shown)
VH: B3 VH
VL: B2 VL with A1D, A50D, S53A, D70E
B5: Fab SEQ ID NOs 3, 4 (Fab, V domains shown)
VH: B2 VH with R16G, T23A, S28T, S31T, Y32A
VL: B3 VL
B6: Fab SEQ ID NOs. 24, 26 (Fab, V domains shown)
VH: B1 VH with Y113I
VL: B1 VL with S93G
B7: Fab SEQ ID NOs: 13, 37 (Fab, V domains shown)
VH: B3 VH
VL: B3 VL with S93G

Target: PcrV of the Type III secretion system on P. aeruginosa strain PA103 (Pseudomonas aeruginosa strain PA103)
Test: cell-based or functional assay

Binder	IC50 (nM), TTSS-dependent cytotoxicity assay (PA103 killing of P3-X63-Ag8 cells)
B1	61.4 nM
B2	50.2 nM
B3	20 nM
B4	25.5 nM
B5	35.1 nM
B6	25.5 nM
B7	12 nM
